Assay results from article PMC10373542 (Journal of Virology, 2023).

Tests used:
[1] = target: T1, SARS-CoV-2 WA-1 spike receptor binding domain (RBD) (SARS-CoV-2 WA-1 (S identical to …, UniProt P0DTC2)); assay: cell-based or functional assay
[2] = target: T1, SARS-CoV-2 WA-1 spike receptor binding …; assay: BLI
[3] = target: T1, SARS-CoV-2 WA-1 spike receptor binding …; assay: BLI; remark: listed apart in the source

Row | Binder | IC50 of neutralization of WA-1 pseudotyped virus on HEK293 cells expressing ACE2 [1] [µg/mL] | fold higher rate of dissociation (koff) than with WRAIR-2063 [2] [fold] | Kd [3] [nM]
1 | Walter Reed Army Institute of Research 2063 (WRAIR-2063) monoclonal antibody, human IgG1 (antibody, V domains shown) VH: EVQLVESGGGVVQPGRSLRLSCAASGFTFSSYGMHWVRQAPGKGLEWVAVIWYDGSNKYYADSVKGRFTISRDNSKNTLYLQMNSLRAEDTAVYYCARGPLGSNYFNYDAFDIWGQGTMVTVSS VL: DVVMTQSPLSLPVTLGQPASISCRSSQSLEYSDGNTYLNWFQQRPGQSPRRLIYKVSKRDSGVPDRFSGSGSGSDFTLKISRVEAEDVGVYYCMQGTHWPLTFGGGTKVEIK | 0.45 | – | –
2 | WRAIR-2134 monoclonal antibody (antibody, V domains shown) VH: EVQLVESGGGVVQPGRSLRLSCAASGFIFSSYGMYWVRQAPGKGLEWVAVIWYDGSNKYYADSVKGRFTISRDNSKNTLYLQMNSLRAEDTAVYYCARDLSSSSGWDDYYYYYGMDVWGQGTTVTVSS VL: not shown | 18.6 | ~10 | 4.26
3 | N-612-056 monoclonal antibody (antibody, V domains shown) VH: not shown VL: DIQMTQSPSSLSASVGDRVTITCQASQDISNYLNWYQQKPGKAPKLLIYDASNLETGVPSRFSGSGSGTDFTFTISSLQPEDIATYYCQQDAGTPLTFGQGTKVEIK | 4.47 | ~10 | 6.31
4 | S2H97 monoclonal antibody (antibody, V domains shown) VH: QVRLVQSGAEVKKSGESLKISCKGSGYSFTSYWIGWVRQMPGKGLEWMGIIYPGDSDTRYSPSFQGQVTISADKSISTVYLQWSSLKASDTAMYYCARQWSHYTYDYYYWGQGTLVTISS VL: QSVLTQPASVSGSPGQSITISCTGISSDVGGYNSVSWYQQHPGKAPKLMIYDVTNRPSGVSNRFSGSKSGNTASLTISGLQAEDEADYYCSSYTSSSTPPYVFGTGTKVSVL | 0.31 | – | 0.9
5 | ION-300 monoclonal antibody (antibody, V domains shown) VH: QVQLVQSGAEVKKPGESLKISCKGSGYSFTSYWIGWVRQMPGKGLEWMGIIYPGDSDTRYSPSFQGQVTISADKSISTAYLQWSSLKASDTAMYYCARHPSPYYYGSGSYSGGFDYWGQGTLVTVSS VL: DIVMTQSPGTLSLSPGERATLSCRASQSVSSSYLAWYQQKPGQAPRLLIYGASTRATGIPARFSGSGSGTEFTLTISSLQSEDFAVYYCQQYDNWPLMHTFGQGTKLEIK | 0.99 | ~10 | 3.65
6 | 6D6 monoclonal antibody (antibody, V domains shown) VH: EVQLQQSGAELVKPGASVKLSCTTSGFNIIDTYMHWVKQRPEEGLEWIGGIDPVNGNSEYDPKFQDKATITADTSSNTAYLHLSRLTSEDTAVYYCASAHYYGSSSSFPYWGQGTDLVTVS VL: DIVMTQSQKFMSTSVGDRVSVTCKASQNVGTHVAWYQQKPGQSPKALIYSASYRYSGVPDRFTGSGVGTDFTLTITNVQSEDLAEYFCQQYNSYFTFGSGTKLEIK | 1.37 | ~10 | 3.62
7 | 7D6 monoclonal antibody (antibody, V domains shown) VH: EVQLQQSGAELVRPGASVKLSCTASGFNIKDTYIHWVKQRPEQGLEWIGRIDPGDGDTEYDPSFQGKATITADTSSNTAYLELSSLTSEDTAVYYCTRFYDYVDYGMDYWGQGTSVTVSS VL: DIQMTQSPASLSASVGETVTITCRASGNIHNYLAWYQQKQGKSPQLLVYNAKTLADGVPSRFSGSGSGTQYSLKINSLQPEDFGSYYCQHFWSTPPWTFGGGTKLEVK | 0.33 | ~10 | 3.41
8 | WRAIR-2057 monoclonal antibody (antibody, V domains shown) VH: EVQLVQSGAEVKKPGESLKISCKGSGYSFISYWIAWVRQMPGKGLEWMGIIYPGDSDTTYSPSFQGQVTISADKSISTAYLQWSSLKASDTAIYYCARLLYYSDSSPLDSWGQGTLVTVSS VL: DIQMTQSPSSLSASVGDRVTITCRASQSISTYLNWYQQKPGKAPNLLIYAASSLQSGVPSRFSGSGSGTDFTLTISSLQPEDFATYYCQQSHSTPRTFGPGTKVDIK | 1.85 | ~10 | 6.3
9 | COVOX-45 monoclonal antibody (antibody, V domains shown) VH: QVQLVESGGGVVQPGRSLRLSCAASGFTFSTYAMHWVRQAPGKGLEWVAVLSYDGSNKYYADSVKGRFTISRDNSKNTLYLQMNSLRAEDTAVYYCAKGGSYAYYYYMDVWGKGTTVTVSS VL: not shown | 0.32 | ~10 | 4.43
10 | X17 monoclonal antibody (antibody, V domains shown) VH: QVQLQQSGAELARPGASVKLSCKASGYTFTFYWMQWLKQRPGQGLEWIGAIYPGDGDTRYTQRFKDKATLTADKSSSTAYIQLSSLASEDSAVYYCAGGEYDNYGFDYWGQGTTLTVSS VL: DIQMTQTTSSLSASLGDRVTISCRASQDISNYLNWYQQKPDGTVKLLIYYTSRLHSGVPSRFSGSGSGTDYSLTISNLEQEDIATYFCQQGTTLPYTFGGGTKLEIK | 2.27 | ~10 | 4.72
11 | FD20 monoclonal antibody (antibody, V domains shown) VH: QVQLQQSGAEVKKPGSSVKVSCKASGGTFSSYAFSWVRQAPGQGLEWMGRIIPILGIANYAQKFQGRVTITADISTSTAYMALSSLRSEDTAVYYCAKVEVNIGMDDYYYYYGMDVWGQGTTVTVSS VL: not shown | 0.6 | ~10 | 3.07
